From the supplement of paper PMC7125110
± gives the standard error. This sample holds only a part of the variants without activity.

B1: glmS ribozyme (parent)
chain: AUAAAAGCGCCAGAACUACAGAAAUGUAGUUGACGAGGAGGAGGUUUAUCGAAUUUUCGGCGGAUGCCUCCAAA

Variants of: B1
Experiment: self-cleavage kobs at 10000 uM GlcN6P; higher = faster cleavage; RNA array
Conditions: with glucosamine-6-phosphate
Outline: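 E. coli RNA polymerase transcribed barcoded ribozyme variants in situ on sequenced MiSeq chips, which were tracked via a hybridised Cy3 probe at 37 °C. Tiles were imaged over ~14 h after glucosamine-6-phosphate (40 μM to 10 mM) in HEPES/KCl/Mg(OAc)2 buffer was flowed in. Normalised per-tile medians were fit to one- or two-exponential decays for kobs, and kcat and KM came from weighted Michaelis–Menten fits.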

| Variant | self-cleavage kobs at 10000 uM GlcN6P [s⁻¹] |
| --- | --- |
| AUAAAAGCUCCAGACCUACAGAAAUGUAGUUGACGAGGAGGAGGUUUAUCGAAUUUUCGGCAGAUGCCUCCAAA [G9U A15C G62A] | < 1e-05 |
| AUAAAAGCGCCAGAACUACAGAAAUGUAGUUGACGAGGAGGAGGUUUAUCGAGUUUUCGGCGCAUGCCUCCAAA [A53G G63C] | < 1e-05 |
| AUAAAAGCGCCAGAACUACAGAAAUGUAGUUGACGAGGAGGAGGUUUAUUGAAUUUUCGGCGGCUGCCUCAAAA [C50U A64C C71A] | < 1e-05 |
| AUAAAAGCGCCAGGACUACAGAAAUGUAGUUGACGAGGACGAGGUUUAGGCAAUUUUCGGCGGAUGCCUCCAAA [A14G G40C U49G C50G G51C] | < 1e-05 |
| AUAAAAGUGCCCGAUCUACAGAAAUGUAGUUGACGAGUAGGAGGUUUAUCGAAUUUUCGGCGGUUGCCUCCAAA [C8U A12C A15U G38U A64U] | < 1e-05 |
| AUAAAAGCGCCAGAACUACAGAAAUGUAGUUGACGAGGAGGAGGAUUAUCGAAUUUUCGGCAGAUGCCUCCAAA [U45A G62A] | < 1e-05 |
| AUAAAAGCGCCAGCACUACAGAAAUGUAGUUGACGAGGAGGAGGUUGAUCGAACUUUCGGCGGAUGCCUCCAAA [A14C U47G U54C] | 0.00121 ± 0.00018 |
| AUAAAAGCGCCAGAACUACAGAAAUGUAUUUGACGAAGAGGAGGUUUAUCGAAUUUUCGGCGGAUGCCUCUAAA [G29U G37A C71U] | 0.000169 ± 4e-05 |
| AUAAAAGCGCCAGAGUUACAGAAAUGUAGUUGACGAGGAGGAGGUUUAUCUAAUUUUCGGCGGAUGCCUCCAAA [A15G C16U G51U] | < 1e-05 |
| AUAAAAGCGCCAGAACUACAGAAAUGUAGUCGACGAGGAGUAGGUUUAUCGAGUUUUCGGCGGAUGCCUCCAAA [U31C G41U A53G] | 0.000299 ± 8.8e-05 |
| AUAAAAGCGCCAGAACUACAGAAAUGUAGUUGACGCGGAGGAGGUUUAUCGUAUUUUUGGCGAAUGCCUCCAAA [A36C A52U C58U G63A] | < 1e-05 |
| AUAAAAGCGCCAGAACUACAGAAAUGUAGUUGACGAGGAGGAGGGUUAUCGAAUUUUAGGCGGAUUCCUCCAAA [U45G C58A G66U] | 8.19e-05 ± 1.6e-05 |
| AUAAAAGCGCCAGAACUACAGAAAUGUAGUUGACGAGGAGGAGGUUUAUCGUAUUUUCGGCGGAUCCCUCCAAA [A52U G66C] | 4.08e-05 ± 1.2e-05 |
| AUAAAAGCGCCAAAACUACAGAAAUGUAGUUGACUACGAGGAGGUUUAUCGAAUUUUCGGCGGAUGCCUCCAAA [G13A G35U G37C] | < 1e-05 |
| AUAAAAGCGCCAGAACUACAGAAAUGUAGUUGACGAGUAGAAGGGUUAUCGAAUUAUCUGCGGAUGCCUCCAAA [G38U G41A U45G U56A G59U] | < 1e-05 |
| AUAAAAGCGGCAGAACUACAGAAAUGUAGUUGACGAGGAUGAGGUUUAUCGAAUAUUCGGUGGAUGCCUCCAAA [C10G G40U U55A C61U] | < 1e-05 |
| AUAAAAGCGCCAGAACUACAGAAAUGUAGUUGACGAGGAGGAGGUUUGUCGAAUUUUAGGCGGAUGCCUCCAAA [A48G C58A] | 4.59e-05 ± 1.1e-05 |
| AUAAAAGCGCCAGAACUACAGAAAUGUAAUUGACGAGGAGGAGGUUUAUCGAAUUUUGGGCGGAUGCCUCCAAA [G29A C58G] | 6.15e-05 ± 1.1e-05 |
| AUAAAAUCGCCAGAACUACAGAAAUGUACUUGACGAGGAGGAGGUUUGUGGAAUUUUCGGCGGAUGCCUCAAAA [G7U G29C A48G C50G C71A] | 0.00097 ± 0.00047 |

| Variant | self-cleavage kobs at 10000 uM GlcN6P [s⁻¹] |
| --- | --- |
| AUAAAAGCGCCAGGGCUACAGAAAUGUAGUUGACGAGGAGGAGGUUUCUCGAAUUUUCGGCGGAUGCCUCCAAA [A14G A15G A48C] | 0.00148 ± 0.00029 |
| AUAAAAGCGCCAGAACUACAGAAAUGUAGUUGACGAGGAGGAGGUUUAUCGGAUUUGCGGCGGACGCCUCCAAA [A52G U57G U65C] | 6.98e-05 ± 1.2e-05 |
| AUAAAAGCGCCAGAACUACAGAAAUGUAGUUGACGAGGAGGAGGUUUGGCGAAUUUUCGGCGGAUGCCUCCAAA [A48G U49G] | 5.7e-05 ± 2.1e-05 |
| AUAAAAGCGCCAGAACUACAGAAAUGUAGUUGACGAGGAGCAGGUUUAUCGAAUUCUCGGCGGAUGCCUCCAAA [G41C U56C] | 3.26e-05 ± 8.9e-06 |
| AUAAAAGCGCCCGAACUACAGAAAUGUAGUUGACGAGGAGGAGGUUUAUCGAAUUUUCGGCGGAUGCGUCCAAA [A12C C68G] | 2.93e-05 ± 8.5e-06 |
| AUAAAAGCGCCAGAACUACAGAAAUGUAGUUGACUAGGAGGAGGUUAAUCGAAUUUUCGGUGGAUGCCUCCAAA [G35U U47A C61U] | < 1e-05 |
| AUAAAAGCGCUAGAACUACAGAAAUGUAGUUAACGAGGAGGGGGUUUAUCGAUUUUUCGGCGGAUGCCUCCAAA [C11U G32A A42G A53U] | 9.31e-05 ± 2.5e-05 |
| AUAAAAGCGCCAGAACUACAGAAAUGUAGUUGACGAGGAGGAGGUUUAUCGAAUUGUCGGCGGUUGCCUUCAAA [U56G A64U C70U] | 4.79e-05 ± 1.2e-05 |
| AUAAAAGCGCCAGGACUACAGAAAUGUAUUUGACGAGGACGAGGUUUAUCGAAUUUUCGGCGGAUGCCUCCAAA [A14G G29U G40C] | 0.00075 ± 0.00013 |
| AUAAAAGCUCCAGAACUACAGAAAUGUAGUUGACCAGGAGGCGGUUUAUCGAAUUUUCGGCGGAUGCCUCCAAA [G9U G35C A42C] | < 1e-05 |
| AUAAAAGCGCCAGAACUACAGAAAUGUAGUUGCCGAGUAGGAGGUUUAUCGAAUUUUCGGCGGAUGCUUCCAAA [A33C G38U C68U] | < 1e-05 |
| AUAAAAACGCCAGAACUACAGAAAUGUAGUUGACGAGGAGGAGGUUUAUCGACUUUUCGGCGAAUGCCUCCAAA [G7A A53C G63A] | < 1e-05 |
| AUAAAUGCGCCUGAAUUACAGAAAUGUAGUUGACGGGGAGGAGGUUUAUCGAAUUUUCGGCGGAUGCCUCCAAA [A6U A12U C16U A36G] | < 1e-05 |
| AUAAAAGCGCCAGAACUACAGAAAUGUAGUCGACGAGGAGGAGGUUUAUGGAAUUUUCGGCGAAUGCCUCCAAA [U31C C50G G63A] | 3.51e-05 ± 1.5e-05 |
| AUAAAAGCGCCAGAACUACAGAAAUGUAGUUGACGAGGAGGAGGUUUCUCGAAUUUUCGGCGGAUGCCUCGAAA [A48C C71G] | 2.78e-05 ± 8.9e-06 |
| AUAAAAGCGCCAGAACUACAGAAAUGUAGUUGACGAGGAGGAGGUUUGUCGAAUUUUCGGCCGAUGCCUGCAAA [A48G G62C C70G] | < 1e-05 |
| AUAAAAGCGCCAGAACUACAGAAAUGUAGUAGACGAGGAGGGGGUCUAUCGAAUUUUCGGCGGAUGCCUCCAAA [U31A A42G U46C] | 0.000411 ± 9.2e-05 |
| AUAAACGCGCCAGAUCUACAGAAAUGUAGUUGAAGAGGGGGAGGUUUAUCGAAUUUUCGGCGGAAGCCUCCAAA [A6C A15U C34A A39G U65A] | < 1e-05 |
